How the values were obtained:
[1] = biological target: SARS-CoV-2 Spike (S) protein, recombinant, construct not stated at the place (SARS-CoV-2) (UniProt P0DTC2)
[2] = biological target: Asialoglycoprotein Receptor 1 expressed on cells (human) (UniProt P07306)
[3] = biological target: C-type lectin domain family 10 member A expressed on cells (human) (UniProt Q8IUN9)
[4] = biological target: Tweety Family Member 2 expressed on cells (human) (UniProt Q9BSA4)
[5] = biological target: Dendritic cell-specific intercellular adhesion molecule-3-grabbing nonintegrin expressed on cells (human) (UniProt Q9NNX6)
Sequence of Dendritic cell-specific intercellular adhesion molecule-3-grabbing nonintegrin expressed on cells (human) (Q9NNX6 whole entry): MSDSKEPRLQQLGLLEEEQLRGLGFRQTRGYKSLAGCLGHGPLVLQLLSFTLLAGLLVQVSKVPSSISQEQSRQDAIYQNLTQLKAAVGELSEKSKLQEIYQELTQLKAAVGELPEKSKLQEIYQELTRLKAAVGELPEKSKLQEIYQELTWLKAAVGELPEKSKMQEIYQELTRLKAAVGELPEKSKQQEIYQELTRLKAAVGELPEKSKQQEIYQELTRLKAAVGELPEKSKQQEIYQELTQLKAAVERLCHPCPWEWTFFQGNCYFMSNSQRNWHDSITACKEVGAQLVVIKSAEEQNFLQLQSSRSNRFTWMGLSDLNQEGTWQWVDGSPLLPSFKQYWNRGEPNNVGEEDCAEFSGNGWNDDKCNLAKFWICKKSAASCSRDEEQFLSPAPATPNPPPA

[6] = biological target: Liver and lymph node sinusoidal endothelial cell C-type lectin expressed on cells (human) (UniProt Q6UXB4)
Sequence of Liver and lymph node sinusoidal endothelial cell C-type lectin expressed on cells (human) (Q6UXB4 whole entry): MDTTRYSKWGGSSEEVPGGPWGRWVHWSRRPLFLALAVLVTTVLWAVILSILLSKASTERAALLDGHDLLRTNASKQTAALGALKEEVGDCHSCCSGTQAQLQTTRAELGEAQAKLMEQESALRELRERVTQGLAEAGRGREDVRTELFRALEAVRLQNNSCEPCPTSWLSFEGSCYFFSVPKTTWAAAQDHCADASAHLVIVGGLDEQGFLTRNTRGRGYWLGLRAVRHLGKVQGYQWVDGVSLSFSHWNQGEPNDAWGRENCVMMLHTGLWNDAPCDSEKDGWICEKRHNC

[7] = biological target: Liver/lymph node-specific intercellular adhesion molecule-3-grabbing integrin expressed on cells (human) (UniProt Q9H2X3)
Sequence of Liver/lymph node-specific intercellular adhesion molecule-3-grabbing integrin expressed on cells (human) (Q9H2X3 whole entry): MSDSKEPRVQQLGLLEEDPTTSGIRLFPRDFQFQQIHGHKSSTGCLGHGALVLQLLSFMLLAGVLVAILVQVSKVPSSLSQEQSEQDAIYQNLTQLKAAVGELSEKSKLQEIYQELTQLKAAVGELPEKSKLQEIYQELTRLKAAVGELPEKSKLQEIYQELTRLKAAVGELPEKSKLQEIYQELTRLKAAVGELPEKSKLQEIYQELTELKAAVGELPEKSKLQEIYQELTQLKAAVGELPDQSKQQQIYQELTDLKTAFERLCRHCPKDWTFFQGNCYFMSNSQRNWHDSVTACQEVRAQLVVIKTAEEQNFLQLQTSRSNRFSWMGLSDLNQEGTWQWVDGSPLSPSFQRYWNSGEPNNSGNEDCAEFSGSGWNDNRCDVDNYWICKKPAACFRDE

Sequence of Tweety Family Member 2 expressed on cells (human) (Q9BSA4 whole entry): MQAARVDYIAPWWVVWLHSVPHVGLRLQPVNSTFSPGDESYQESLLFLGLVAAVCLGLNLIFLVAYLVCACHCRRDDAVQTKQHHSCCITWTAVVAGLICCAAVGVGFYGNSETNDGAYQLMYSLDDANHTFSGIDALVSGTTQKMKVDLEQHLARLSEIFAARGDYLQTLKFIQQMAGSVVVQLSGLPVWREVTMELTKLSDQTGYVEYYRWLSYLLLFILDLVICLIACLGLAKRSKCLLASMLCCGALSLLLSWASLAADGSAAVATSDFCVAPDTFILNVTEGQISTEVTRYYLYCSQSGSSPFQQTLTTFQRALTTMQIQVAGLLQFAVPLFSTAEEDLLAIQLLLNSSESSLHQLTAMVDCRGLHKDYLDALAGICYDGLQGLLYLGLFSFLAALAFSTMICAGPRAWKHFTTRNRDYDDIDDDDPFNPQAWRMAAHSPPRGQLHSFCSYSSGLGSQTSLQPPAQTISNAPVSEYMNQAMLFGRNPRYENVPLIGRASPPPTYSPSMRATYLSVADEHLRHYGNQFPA
Sequence of Asialoglycoprotein Receptor 1 expressed on cells (human) (P07306 whole entry, the tested form may be a part): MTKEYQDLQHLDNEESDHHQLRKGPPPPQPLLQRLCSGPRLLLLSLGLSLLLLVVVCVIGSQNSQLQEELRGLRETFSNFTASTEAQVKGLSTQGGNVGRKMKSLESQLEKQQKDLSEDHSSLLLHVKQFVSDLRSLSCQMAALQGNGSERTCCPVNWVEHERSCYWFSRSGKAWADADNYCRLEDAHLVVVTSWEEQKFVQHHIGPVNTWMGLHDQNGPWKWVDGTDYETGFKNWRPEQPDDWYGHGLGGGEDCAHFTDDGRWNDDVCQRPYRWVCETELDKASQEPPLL
Sequence of C-type lectin domain family 10 member A expressed on cells (human) (Q8IUN9 whole entry, the tested form may be a part): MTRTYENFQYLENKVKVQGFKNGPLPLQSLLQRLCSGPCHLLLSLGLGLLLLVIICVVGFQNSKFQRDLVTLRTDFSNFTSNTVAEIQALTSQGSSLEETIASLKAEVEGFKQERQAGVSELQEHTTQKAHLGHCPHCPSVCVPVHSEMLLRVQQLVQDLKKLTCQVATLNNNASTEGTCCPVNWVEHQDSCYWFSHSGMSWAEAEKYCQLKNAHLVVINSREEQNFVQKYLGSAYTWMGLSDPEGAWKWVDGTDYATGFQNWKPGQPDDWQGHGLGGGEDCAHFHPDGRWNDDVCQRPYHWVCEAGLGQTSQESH

Substance: ACE2-Fc + L-SIGN-Fc + ASGR1-Fc
- blocking of S protein binding (heat-map cell) [1]: 33.7%

Substance: Fc Control
- blocking of S protein binding (heat-map cell) [1]: 0%

Substance: SARS-CoV-2 S protein displayed on lentiviral (HIV-GFP) pseudovirus (from UniProt P0DTC2 14-1273)
- cells in the Anti-SARS-CoV-2 S protein (APC) gate [2]: 47.6%
- cells in the Anti-SARS-CoV-2 S protein (APC) gate [3]: 3.2%
- cells in the Anti-SARS-CoV-2 S protein (APC) gate [4]: 1.61%

Substance: SARS-CoV-2 S protein displayed on lentiviral (HIV-GFP) pseudovirus (from UniProt P0DTC2 14-1273) (other; other documents disagree on this pair)
- cells in the Anti-SARS-CoV-2 S protein (APC) gate [5]: 20.8%
- cells in the Anti-SARS-CoV-2 S protein (APC) gate [6]: 1.7%
- cells in the Anti-SARS-CoV-2 S protein (APC) gate [7]: 31.7%

From US20220089695A1
